Measured values: the DeepSol protein solubility set

Experiment: soluble on expression in E. coli; label from the status in PepcDB or PDB records

## MGSDKIHHHHHHMIISDVLYGEFEVDQVVEELILSKSVQRLKGIHQTGASYLVNKEWNVTRFDHSVGVMLLVKKLGGSVEEQIAGLLHDVSHTAFSHVVDYVFDNRNESYHEEIFSSVVKHSEIPAILAKYGYNYEEILLDDSKWTLLERSAPELCADRVDYTLRDMYTYGYISLEEAHSFLEDVIEVNGKMVLQNIEMAEWFTETYYKEVIDFFMQPMNSYGNDMLAKTLKLALHKKVIHADDFLLEDDELISKLQQCSDPEVHALVSKVHPNVKVKEDRNDYDLYQNNKVRLIDPSLLREGEVVPSSVVSENIRKMSEIAYEKAVRGMYVKVVSD
  soluble on expression in E. coli: not soluble

## MMIRGIRGATTVERDTEEEILQKTKQLLEKIIEENHTKPEDVVQMLLSATPDLHAVFPAKAVRELSGWQYVPVTCMQEMDVTGGLKKCIRVMMTVQTDVPQDQIRHVYLEKAVVLRPDLSLTKNTEL
  soluble on expression in E. coli: soluble

## MGSDKIHHHHHHMASFPELPALRRLATLGRSWGLLSDFKYEQTRPDIFYGNLALDTSSLVAALSEDISGAGLNDLKVLDVGGGPGYFAEAFETLGATYFSVEPDVGEMSAAGIDVHGSVRGSGLDLPFLPDSFDVVYSSNVAEHVSAPWELGEEMLRVTRSGGLAILSYTIWLGPFGGHETGLWEHYVGGEFARDRYTKKHGHPPKNVFGESLFNVSCREGLEWGASVGNAELVAAFPRYHPYWVWWMVKVPVLREFAVSNLVLVFKKH
  soluble on expression in E. coli: not soluble

## MGSDKIHHHHHHMRVLGLILAGGKSDRLWPLTKVRASAAVPVFGKYRAIDFTLSNMVNSGIRKVGILTQYNPRSLMDHLGSGKEWDLDRKSGGLFILQPYVGPNREVWYRGTADAIFQNMTILRRGEEDHVLIGSGDHIYKMIYRDLFNYHLKKGADITLVVKELDETYNLSEYGIVQLDDDMRVVEIEEKPAHPKGNIAFLGVYFMNKELLKELLYATVPQGKYDLLLDIVIPNLDRLKVYAYRFDGYWRNVKKGIKEYYRINMDILKKEVRDELFYRNGKVYTKLKDLPPPKFTTTAVVENSLIADGSIVSGTVRNSVIFRNVRIKVGAVVENSIIMENTVVEEGAVLRNVILDKNCIVREGRVIEGDTELPVFEKRAVL
  soluble on expression in E. coli: not soluble

## MAHHHHHHMQRNEVESLEGLVLLVQLRVLVAHHNAVTSLRPIAVLPALSFIDARSNKIEDVNPMEDLPCDSLKYLALLDNPCCNGDRSVDREQIMKACPKLAMLDDVPRDPSAEKVTGSEEEENSDEEDGCKRWHAVSETPTGCSKGVSSRIHLYRSLKMCEPLPVSVPSLEPIPVTSQDIDTNRVTTTTDRLCEQLRHRSSAIRRMAGHHALGQTEVSDPVWDFGNHVENDGDSEHRSNGRRRLDSPESTLSLTLPPELEQERATKARLYDDIRFALQADDRRLRQLAGVVWDDVDKVLSTRQALVGHRRHRMHTAHQQPSDAYAKSLEILKHENRVANLDKYRKQENANAPQ
  soluble on expression in E. coli: not soluble

## MAYWLMKSEPDEFSISDLQRLGKARWDGVRNYQARNFLRTMAEGDEFFFYHSSCPEPGIAGIGKIVKTAYPDPTALDPDSHYHDAKATTEKNPWSALDIGFVDIFKNVLGLGYLKQQSQLEQLPLVQKGSRLSVMPVTAEQWAAILALRLEHHHHHH
  soluble on expression in E. coli: soluble

## MAQFESGVKYVPYSQEQVFNKLSDLSNLESVRDKLADKVQGMEFDSDSLSFTVQGISITLRIIEREPYKCVKFESEKSPVPMNLWIQILPVEAGQAKLKVTIRAEVNMFMKAMVAKPLQDGVDKLAEMLSMIPYLEHHHHHH
  soluble on expression in E. coli: soluble

## MSLTFSILARDPNNGRFGVAVATCHLAVGSTVPHIRSGVGAVATQAHTNPYLGICGLERLEHHADAQDVLNSLLLDDPQRDWRQFHLIDLDGRTACWTGVECGGWAGHRHHPNLSVAGNCLAGEVVLEAMEQTFLTSDPNWKLGRRLMTALQAGEQAGGDQRASSCTSAALQVSGEAAFPLLDLRVDFRSGAVEELMELYERSQDRWAQQWRDELLELPMLNRLVAEGHHHHHH
  soluble on expression in E. coli: soluble

## SLLLKQAIVYPITSQKFQGDVLVIGEKIAEVKPSIQPTQDMTVIDARALHLLPGFIDVHTHLGLYDEGTGWAGNDANETSEVSTPHIRSLDGIHPFDIAFQDAVQNGITTVHVMPGSQNIIGGTTCVIKTAGTCIDHMIIQEPAGLKIAFGENPKKVHSNGTKESITRMGIMGLLRESFYEAQHYGHEADFRMLPILKALRREIPVRIHAHRADDISSALRFATEFNLDLRIEHCTEGHFIVEELSKHNLKVSVGPTLTRRSKIELKNKTWDTYHILSKNGVEVSITTDHPYTPIQYLNVCAAVAVREGLDEKTALEGITIFPARNLRLEDRIGSIETGKDADLVLWTHHPFHYLAKPVLTMIDGKIIYKKNKKN
  soluble on expression in E. coli: soluble

## MSLAERLNNDFQFIEVGRKDPKKKLLRQRKKEFVEIYEPFKPQQSVEQAHRCLGCGNPYCEWKCPVHNFIPNWLKLVSEGNILAAAELSHQTNTLPEVCGRVCPQDRLCEGACTLNDGFGAVTIGSVEKYITDTAFAMGWRPDMSKVKPTGKRVAIIGAGPAGLGCADVLVRAGVTPVVFDKNPEIGGLLTFGIPEFKLEKTVLSNRREVFTGMGIEFRLNTEVGKDVTMEQLLAEYDAVFMGMGTYTYMKGGFPGEDLPGVHDALDFLIANVNRNLGFEKSPEDFVDMQGKKVVVLGGGDTAMDCNRTSIRQGAKAVTCAYRRDEANMPGSRKEVKNAKEEGVKFLYNRQPIAIVGEDKVEGVKVVETRLGEPDARGRRSPEPIPGSEEILPADAVVIAFGFRPSPAPWFEQHGIQLDSQGRVVAPEKGKFKHQTSNPKVFAGGDMVRGSDLVVTAIFEGRTAAEGILDYLEVEGHHHHHH
  soluble on expression in E. coli: soluble

## VELKVKRFPISRYQANNEASDDLIKGAFVGLTNVTFSFAGNIVRVVDTGMDILYNLQPIDEFANSITNVSKTVYKTLKKN
  soluble on expression in E. coli: not soluble

## MGSDKIHHHHHHRSPQGQFTEDDNPNALVNGKIYNVYTMMRSFDITAGTPAIAIHYLRSEDSEKGSIPSDGSDVAEMYDDFLYTPTNGLLGSYWGKNYAIIYQCNDILDAIAEKETAGQTETEDIINKGEASFFRAYCYFNLVRAFGEVPLVTYKINDASEANIPKTTADKIYEQIDTDLKTAEESLPETWSTEYTGRLTWGAARSLHARTYMMRSDWDNMYKASTDVINKGLYNLKTPYNEIFTDDGENSGGSIFELQCTATAALPQSDVIGSQFCEVQGVRGAGQWDLGWGWHMATQLMADAYETGDPRKNATLLYFRKTDDEPITPENTNEPYGESPISPAMGAYFNKKAYTDPALRKEYTNKGFWVNIRLIRYSDVVLMAAEAANEKNIPGEAVDYLEMVRARARGTNTNILPKITTNDQGELREAIRHERRVELGLEPDRFYDLVRWGIASEVLHAAGKVNYQDKNALLPLPQSEIDKSKGVLVQNPDY
  soluble on expression in E. coli: not soluble

## HITHKLLIPAWDGIVLEGLSVKERKTTNNTVVLALIGHFQTEHHYLNTSFHEFQELFGTELVLINHRNYSNRSNKFANSAEEIARDVLAFAKHFRQKNKKIVLYGMCGGAAHMILAA
  soluble on expression in E. coli: not soluble

## MATVSTNEFKGGLKIMLDNEPCVILENEYVKPGKGQAFNRVRIRKLLTGKVLEKTFKSGDTAEVADVVDIDLDYLYNDGEFYHFMNNSTFEQLAADAKAVGENAKWLVENNTCMLTLWNGNPIAVTPPNFVELEVTETDPGVKGDTQGTGGKPATLSTGAVVRVPLFVQIGEVIKVDTRSAEYVGRVK
  soluble on expression in E. coli: soluble

## MVLADLGRKIRNAIGKLGQSTVINEGELDLMLKEVCTALIESDVHIRLVKQLKDNVKKAINFEEIVGGANKRRYIQKTVFNELLKLVDPGVTPFTPTKGRRNVFMFVGLQGSGKTTTCTKMAYYYQRKGWKTCLICADTFRAGAFDQLKQNATKARIPFYGSYSEIDPVKIAAEGVEKFTQEGFEIIIVDTSGRHKQEASLFEEMLQVSNAVTPDNVVFVMDASIGQACEAQARAFSQTVDVASVIITKLDSHAKGGGALSAVAVTKSPVIFIGTGEHIDDFEIFKPKSFVQKLLGMGDIAGLVDMVNDIGIQDNKELVGRLKQGQFTLRDMYEQFQNIMKMGPFSQIMGMIPGFGSEFMTKGNEQESVNRLKRMMTVMDSMSDKELDHPKASELFTKEPNRVARVARGSGSHQQEVRDLLAQYKKFSDVVKKIGSIKGLFNGKNGDINPKNMNPAKMAQLNQQMAKMMDPRVLQQMGGMGGLQNMMQQMARAGKM
  soluble on expression in E. coli: not soluble

## AHHHHHHGSVDWELMKKIIESPGVSGYEHLGIRDLVVDILKDVADEVKIDKLGNVIAHFKGSAPKVMVAAHMDKIGLMVNHIDKDGYLRVVPIGGVLPETLIAQKIRFFTEKGERYGVVGVLPPHLRREAKDQGGKIDWDSIIVDVGASSREEAEEMGFRIGTIGEFAPNFTRLSEHRFATPYLDDRICLYAMIEAARQLGEHEADIYIVASVQEEIGLRGARVASFAIDPEVGIAMDVTFAKQPNDKGKIVPELGKGPVMDVGPNINPKLRQFADEVAKKYEIPLQVEPSPRPTGTDANVMQINREGVATAVLSIPIRYMHSQVELADARDVDNTIKLAKALLEELKPMDFTP
  soluble on expression in E. coli: soluble

## MKICTMGLGYIGLPTSAMFAKYGTEVVGVDIHQKVVDKLNNGEIHIEEPGLGEVVKEVVANGKFRASLTPEEADAFIISVPTPNHDDEHKSCDLSYVLTATEKVLPFVKKGNVIIVESTIAPRSMDDYVKPLVEEAGFTVGEDIYLVHCPERVLPGQILHELVHNNRIVGGVTPACAEAGARVYGVFVEGEIIKTNAKTAEMSKLMENTFRDVNIALANELTKVCNSLDINVLDVIEMANKHPRVNLHYPGPGVGGHCLAVDPYFIVAKAPELANIIKLSRETNVSMPHYVTEKVKELLAGVENPKVAAFGVTYKGNVDDMRESPAMDVIDLIRNEGITVSAHDPHVESDFFELHSAEEAVKDAHLILVLTDHDEFKTMNYDSLAPYMAKTVVFDTRNCVQAVSTGEMKIINFGTLYEALNKNVMMV
  soluble on expression in E. coli: not soluble

## MSLSNDTVSGPSMQPSFENGQRLISVRHAQIKRGEVVIVKAPDEPGALYIKRVIGMPGEKIVSKNNQIYINNKKLSQPWLTQGKKMIDAGSDTFYSATQNFTMKSLARSRQFQQYYTKSQLNYINKYNRIPKETYFVMGDHRSVSKDSRYIGTIKRKNVVGVVKLRYWPLNEFKIYEGHHHHHH
  soluble on expression in E. coli: not soluble

## KVKFTEEEDLKLQQLVMRYGAKDWIRISQLMITRNPRQCRERWNNYINPALRTDPWSPEEDMLLDQKYAEYGPKWNKISKFLKNRSDNNIRNRWMMIARHRAKHQKS
  soluble on expression in E. coli: soluble

## MPVAHVALPVPLPRTFDYLLPEGMAVKAGCRVRVPFGKQQERIGVVVSVSDVSELPLNELKAVVEVLDSEPVFTHSVWRLLLWAADYYHHPIGDVLFHALPILLRQGRPAANAPMWYWFATEQGHAVDLNSLKRSPKQQQALAALRQGKIWRDQVATLEFNDAALQALRKKGLCDLASETPEFSDWRTNYAVSGERLRLNTEQATAVGAIHSAADTFSAWLLAGVTGSGKTEVYLSVLENVLAQGKQALVMVPEIGLTPQTIARFRERFNAPVEVLHSGLNDSERLSAWLKAKNGEAAIVIGTRSALFTPFKNLGVIVIDEEHDSSYKQQEGWRYHARDLAVYRAHSEQIPIILGSATPALETLCNVQQKKYRLLRLTRRAGNARPAIQHVLDLKGQKVQAGLAPALITRMRQHLQADNQVILFLNRRGFAPALLCHDCGWIAECPRCDHYYTLHQAQQHLRCHHCDSQRPVPRQCPSCGSTHLVPVGLGTEQLEQTLAPLFPGVPISRIDRDTTSRKGALEQQLAEVHRGGARILIGTQMLAKGHHFPDVTLVALLDVDGALFSADFRSAERFAQLYTQVAGRAGRAGKQGEVVLQTHHPEHPLLQTLLYKGYDAFAEQALAERRMMQLPPWTSHVIVRAEDHNNQHAPLFLQQLRNLILSSPLADDKLWVLGPVPALAPKRGGRWRWQILLQHPSRVRLQHIINGTLALINTIPDSRKVKWVLDVDPIEG
  soluble on expression in E. coli: not soluble
